Experimental data from patent US20100076062.

Key:
[1] = molecular target: HA-tagged human eIF5A1 (wild type), in vitro translated from pHM6-HA-A1
[2] = molecular target: HA-tagged human eIF5A1D6E, in vitro translated from pHM6-HA-A1(D6E)
[3] = molecular target: HA-tagged human eIF5A1D6E/K50R, in vitro translated from pHM6-HA-A1(D6E/K50R)

B1: recombinant caspase 7 (Calbiochem) (protein)
chain: AKPDRSSFVPSLFSKKKKNVTMRSIKTTRDRVPTYQYNMNFEKLGKCIIINNKNFDKVTGMGVRNGTDKDAEALFKCFRSLGFDVIVYNDCSCAKMQDLLKKASEEDHTNAACFACILLSHGEENVIYGKDGVTPIKDLTAHFRGDRCKTLLEKPKLFFIQACRGTELDDGIQADSGPINDTDANPRYKIPVEADFLFAYSTVPGYYSWRSPGRGSWFVQALCSILEEHGKDLEIMQILTRVNDRVARHFESQSDDPHFHEKKQIPCVVSMLTKELYFSQ
B1 was tested, and the “in vitro cleavage of the biotin-labelled translation product by recombinant caspase (SDS-PAGE, Streptavidin-HRP)” value (“in vitro cleavage” below) [1] was “The wild-type eIF5A1 is cleaved by caspases 2, 3, 6, 7, 8, 9, and 10”.

B2: recombinant caspase 9 (Calbiochem) (protein)
chain: MDEADRRLLRRCRLRLVEELQVDQLWDALLSRELFRPHMIEDIQRAGSGSRRDQARQLIIDLETRGSQALPLFISCLEDTGQDMLASFLRTNRQAAKLSKPTLENLTPVVLRPEIRKPEVLRPETPRPVDIGSGGFGDVGALESLRGNADLAYILSMEPCGHCLIINNVNFCRESGLRTRTGSNIDCEKLRRRFSSLHFMVEVKGDLTAKKMVLALLELAQQDHGALDCCVVVILSHGCQASHLQFPGAVYGTDGCPVSVEKIVNIFNGTSCPSLGGKPKLFFIQACGGEQKDHGFEVASTSPEDESPGSNPEPDATPFQEGLRTFDQLDAISSLPTPSDIFVSYSTFPGFVSWRDPKSGSWYVETLDDIFEQWAHSEDLQSLLLRVANAVSVKGIYKQMPGCFNFLRKKLFFKTS
With B2 the “in vitro cleavage” value [1] was “The wild-type eIF5A1 is cleaved by caspases 2, 3, 6, 7, 8, 9, and 10”, the “in vitro cleavage” value [2] was “are not efficiently cleaved by caspases 9 and 10” and the “in vitro cleavage” value [3] was “are not efficiently cleaved by caspases 9 and 10”.

B3: recombinant caspase 10 (Calbiochem) (protein)
chain: VKTFLEALPQESWQNKHAGSNGNRATNGAPSLVSRGMQGASANTLNSETSTKRAAVYRMNRNHRGLCVIVNNHSFTSLKDRQGTHKDAEILSHVFQWLGFTVHIHNNVTKVEMEMVLQKQKCNPAHADGDCFVFCILTHGRFGAVYSSDEALIPIREIMSHFTALQCPRLAEKPKLFFIQACQGEEIQPSVSIEADALNPEQAPTSLQDSIPAEADFLLGLATVPGYVSFRHVEEGSWYIQSLCNHLKKLVPRMLKFLEKTMEIRGRKRTVWGAKQISATSLPTAISAQTPRPPMRRWSSVS
For B3, the “in vitro cleavage” value [1] was “The wild-type eIF5A1 is cleaved by caspases 2, 3, 6, 7, 8, 9, and 10”, the “in vitro cleavage” value [2] was “are not efficiently cleaved by caspases 9 and 10” and the “in vitro cleavage” value [3] was “are not efficiently cleaved by caspases 9 and 10”.

B4: recombinant caspase 1 (Calbiochem) (protein)
chain: NPAMPTSSGSEGNVKLCSLEEAQRIWKQKSAEIYPIMDKSSRTRLALIICNEEFDSIPRRTGAEVDITGMTMLLQNLGYSVDVKKNLTASDMTTELEAFAHRPEHKTSDSTFLVFMSHGIREGICGKKHSEQVPDILQLNAIFNMLNTKNCPSLKDKPKVIIIQACRGDSPGVVWFKDSVGVSGNLSLPTTEEFEDDAIKKAHIEKDFIAFCSSTPDNVSWRHPTMGSVFIGRLIEHMQEYACSCDVEEIFRKVRFSFEQPDGRAQMPTTERVTLTRCFYLFPGH
In the case of B4, the “in vitro cleavage” value [1] is reported as “The wild-type eIF5A1 is cleaved by caspases 2, 3, 6, 7, 8, 9, and 10 but not by caspase 1”.

B5: recombinant caspase 3 (Calbiochem) (protein)
chain: SGISLDNSYKMDYPEMGLCIIINNKNFHKSTGMTSRSGTDVDAANLRETFRNLKYEVRNKNDLTREEIVELMRDVSKEDHSKRSSFVCVLLSHGEEGIIFGTNGPVDLKKITNFFRGDRCRSLTGKPKLFIIQACRGTELDCGIETDSGVDDDMACHKIPVEADFLYAYSTAPGYYSWRNSKDGSWFIQSLCAMLKQYADKLEFMHILTRVNRKVATEFESFSFDATFHAKKQIPCIVSMLTKELYFYH
B5 was tested, and the “in vitro cleavage” value [1] was “The wild-type eIF5A1 is cleaved by caspases 2, 3, 6, 7, 8, 9, and 10”.

B6: recombinant caspase 8 (Calbiochem) (protein)
chain: SESQTLDKVYQMKSKPRGYCLIINNHNFAKAREKVPKLHSIRDRNGTHLDAGALTTTFEELHFEIKPHDDCTVEQIYEILKIYQLMDHSNMDCFICCILSHGDKGIIYGTDGQEAPIYELTSQFTGLKCPSLAGKPKVFFIQACQGDNYQKGIPVETDSEEQPYLEMDLSSPQTRYIPDEADFLLGMATVNNCVSYRNPAEGTWYIQSLCQSLRERCPRGDDILTILTEVNYEVSNKDDKKNMGKQMPQPTFTLRKKLVFPSD
With B6 the “in vitro cleavage” value [1] was “The wild-type eIF5A1 is cleaved by caspases 2, 3, 6, 7, 8, 9, and 10”, the “in vitro cleavage” value [2] was “HA-tagged eIF5A1D6E and eIF5A1D6E/K50R are effectively cleaved in vitro by caspases 3, 7 and 8” and the “in vitro cleavage” value [3] was “HA-tagged eIF5A1D6E and eIF5A1D6E/K50R are effectively cleaved in vitro by caspases 3, 7 and 8”.

B7: recombinant caspase 6 (Calbiochem) (protein)
chain: AFYKREMFDPAEKYKMDHRRRGIALIFNHERFFWHLTLPERRGTCADRDNLTRRFSDLGFEVKCFNDLKAEELLLKIHEVSTVSHADADCFVCVFLSHGEGNHIYAYDAKIEIQTLTGLFKGDKCHSLVGKPKIFIIQACRGNQHDVPVIPLDVVDNQTEKLDTNITEVDAASVYTLPAGADFLMCYSVAEGYYSHRETVNGSWYIQDLCEMLGKYGSSLEFTELLTLVNRKVSQRRVDFCKDPSAIGKKQVPCFASMLTKKLHFFPKSN
For B7, the “in vitro cleavage” value [1] was “The wild-type eIF5A1 is cleaved by caspases 2, 3, 6, 7, 8, 9, and 10”.

B8: recombinant caspase 2 (Calbiochem) (protein)
chain: GPVCLQVKPCTPEFYQTHFQLAYRLQSRPRGLALVLSNVHFTGEKELEFRSGGDVDHSTLVTLFKLLGYDVHVLCDQTAQEMQEKLQNFAQLPAHRVTDSCIVALLSHGVEGAIYGVDGKLLQLQEVFQLFDNANCPSLQNKPKMFFIQACRGDETDRGVDQQDGKNHAGSPGCEESDAGKEKLPKMRLPTRSDMICGYACLKGTAAMRNTKRGSWYIEALAQVFSERACDMHVADMLVKVNALIKDREGYAPGTEFHRCKEMSEYCSTLCRHLYLFPGHPPT
With B8 the “in vitro cleavage” value [1] was “The wild-type eIF5A1 is cleaved by caspases 2, 3, 6, 7, 8, 9, and 10”.
